From paper PMC8091081 (Infection and Immunity, 2021)

B1: human MAb PhtD7 (antibody, V domains shown)
VH: EVQLVQSGAEVKKPGASVKVSCKASGDIFSDSYIHWVRQAPGQGPEWMGWVSPNTGATHYAQKLQGRVTMTSDTSISTAYLELTRLASDDTAVYYCARVLRGSYDFRGNYPHDFDYWGQGTLVTVSS
VL: QLVLTQPPSASASLGASVTLTCTLSRGHNNYPIAWLQKQTDKGPRYVMRLNSDGSHHKGDGIPDRFSGSSSGAERYLSISSLQPEDEAEYYCQTWDTGLQGVFGGGTKLFVL
B2: human MAb PhtD3 (antibody, V domains shown)
VH: QVQLVQSGPDVKKPGSSVKVSCKASGAAFESFAFAWVRQAPGQGFEWMGRIIPILETRDYAEKFQGRMTMTTDESTATAYMELNSLRFEDTAVYFCARDGHIMRTTLSDAALDVWGQGTTVIVSS
VL: DIVMTQSPVTLSLSPGERATLSCRASQSLTDNYLAWYQQKPGQAPRLLIYAASTRATGIPDRISGSGSGTDFTLTISRVEPEDFAMFYCQQYQNSPFTFGGGTTVEIK

What was measured:
[1] = target: MBP-PhtD fragment, amino acids 341 to 838 (Streptococcus pneumoniae TCH8431 …, UniProt A0A0H2UPR0, strain); experiment: ELISA
[2] = target: PhtD of pneumococcal strain TCH8431 (serotype 19A), endogenous (Streptococcus pneumoniae TCH8431 …, UniProt A0A0H2UPR0, strain); experiment: Western blot
[3] = target: PhtD of pneumococcal strain TIGR4 (serotype 4), endogenous (Streptococcus pneumoniae TIGR4 …, UniProt A0A0H2UPR0); experiment: Western blot

Binder | binding result [1] | binding result [2] | binding result [3]
B1 | binds |  | 
B2 |  | binds | binds
